Data reported in patent US20080242590A1, “New Method 706” (ASTRAZENECA AB, priority 2007, published 2008).

Experiments:
Assay in all cases: cell-based or functional assay
[1] = target: amyloid β peptide 1-40 (human) (human)
[2] = target: amyloid β peptide 1-42 (human) (human)
[3] = target: amyloid β peptide 1-40 in guinea pig plasma (guinea pig) (UniProt Q60495)
[4] = target: amyloid β peptide 1-42 in guinea pig plasma (guinea pig) (UniProt Q60495)
Chain of amyloid β peptide 1-42 in guinea pig plasma (guinea pig) (Q60495 672-713 limits assumed): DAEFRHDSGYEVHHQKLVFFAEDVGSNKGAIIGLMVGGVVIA

Chain of amyloid β peptide 1-42 (human) (human) (peptide, as listed by the source): as the sequence (Q60495 672-713 limits assumed) above
Chain of amyloid β peptide 1-40 (human) (human) (peptide, as listed by the source): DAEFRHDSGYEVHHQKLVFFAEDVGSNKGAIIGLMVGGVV
Chain of Recombinant Human Neprilysin (R&D Systems) (P08473 52-750 limits assumed): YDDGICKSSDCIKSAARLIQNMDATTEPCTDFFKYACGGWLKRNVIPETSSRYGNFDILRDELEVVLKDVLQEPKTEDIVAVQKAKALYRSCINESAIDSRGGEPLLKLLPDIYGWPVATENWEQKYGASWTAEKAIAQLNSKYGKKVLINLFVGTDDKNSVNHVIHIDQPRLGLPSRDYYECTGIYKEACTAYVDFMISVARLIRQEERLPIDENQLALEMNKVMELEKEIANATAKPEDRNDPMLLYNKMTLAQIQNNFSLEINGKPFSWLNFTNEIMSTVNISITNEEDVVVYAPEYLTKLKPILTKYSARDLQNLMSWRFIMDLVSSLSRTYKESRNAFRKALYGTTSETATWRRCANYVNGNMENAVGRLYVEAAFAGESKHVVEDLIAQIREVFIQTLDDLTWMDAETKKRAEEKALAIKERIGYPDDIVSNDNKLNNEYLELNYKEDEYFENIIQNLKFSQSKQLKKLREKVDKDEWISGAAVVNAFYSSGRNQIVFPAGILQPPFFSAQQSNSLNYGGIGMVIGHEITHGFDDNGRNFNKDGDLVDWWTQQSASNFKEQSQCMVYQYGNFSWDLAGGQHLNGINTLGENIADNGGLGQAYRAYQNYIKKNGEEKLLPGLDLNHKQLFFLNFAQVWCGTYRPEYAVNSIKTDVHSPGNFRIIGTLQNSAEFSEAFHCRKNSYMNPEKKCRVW

% degradation of amyloid β 1-40 in APPswe-tg mouse plasma at highest concentration (100 µg/ml), 1 h room temperature, ELISA [1] [%]	% degradation of amyloid β 1-40 in human plasma at highest concentration (100 µg/ml), 1 h room temperature, ELISA [1] [%]	EC50 of degradation of Aβ 1-40 in APPswe-tg mouse plasma [1] [nM]	EC50 of degradation of Aβ 1-40 in human plasma [1] [nM]	% degradation of Aβ 1-42 in APPswe-tg mouse plasma at highest concentration (100 µg/ml), 1 h room temperature, ELISA [2] [%]	% degradation of Aβ 1-42 in human plasma at highest concentration (100 µg/ml), 1 h room temperature, ELISA [2] [%]	EC50 of degradation of Aβ 1-42 in APPswe-tg mouse plasma [2] [nM]	EC50 of degradation of Aβ 1-42 in human plasma [2] [nM]	degradation of Aβ40 in guinea pig plasma ex vivo compared to vehicle (ELISA), 5 µg/ml, 4 h at 37 °C [3] [%]	reduction of Aβ42 in guinea pig plasma ex vivo compared to vehicle (ELISA), 5 µg/ml, 4 h at 37 °C [4] [%]	Substance
77	71	340	400	53	19	820	180			mouse version of the Fc-Nep (mFc-Nep) (Fc fusion)
								49	> 57	Recombinant Human Neprilysin (R&D Systems) (from UniProt P08473 52-750) (enzyme)
